In publication doi:10.1101/2024.09.22.614354 (bioRxiv, 2024):

Assays:
Test in all cases: fluorescence polarisation
Rb^P S474R = molecular target: T1, Rb^P S474R (human, UniProt P06400 380-788, S474R)
T1 sequence: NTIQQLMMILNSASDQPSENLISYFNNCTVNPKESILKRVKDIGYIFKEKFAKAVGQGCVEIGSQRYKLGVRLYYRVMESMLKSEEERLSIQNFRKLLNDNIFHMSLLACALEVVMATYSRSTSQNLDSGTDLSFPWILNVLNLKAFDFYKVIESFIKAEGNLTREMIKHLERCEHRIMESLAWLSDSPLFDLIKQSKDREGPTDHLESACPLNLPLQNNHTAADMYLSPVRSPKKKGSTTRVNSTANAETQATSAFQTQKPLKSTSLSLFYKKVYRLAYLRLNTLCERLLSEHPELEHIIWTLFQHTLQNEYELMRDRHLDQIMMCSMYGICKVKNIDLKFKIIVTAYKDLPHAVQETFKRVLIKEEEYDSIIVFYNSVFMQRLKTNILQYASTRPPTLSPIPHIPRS

Rb^P I703V = molecular target: T2, Rb^P I703V (human, UniProt P06400 380-788, I703V)
T2 sequence: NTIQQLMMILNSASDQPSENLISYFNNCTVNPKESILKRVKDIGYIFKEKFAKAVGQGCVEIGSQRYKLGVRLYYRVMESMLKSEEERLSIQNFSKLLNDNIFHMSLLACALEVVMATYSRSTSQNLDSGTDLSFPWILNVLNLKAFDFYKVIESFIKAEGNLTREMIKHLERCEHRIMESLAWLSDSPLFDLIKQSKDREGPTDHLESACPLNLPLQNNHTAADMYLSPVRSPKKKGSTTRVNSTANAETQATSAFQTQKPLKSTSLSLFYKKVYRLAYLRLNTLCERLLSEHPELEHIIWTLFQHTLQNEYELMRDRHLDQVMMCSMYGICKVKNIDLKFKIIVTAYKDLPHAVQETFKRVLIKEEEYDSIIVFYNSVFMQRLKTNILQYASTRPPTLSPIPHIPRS

Rb^P A525G = molecular target: T3, Rb^P A525G (human, UniProt P06400 380-788, A525G)
T3 sequence: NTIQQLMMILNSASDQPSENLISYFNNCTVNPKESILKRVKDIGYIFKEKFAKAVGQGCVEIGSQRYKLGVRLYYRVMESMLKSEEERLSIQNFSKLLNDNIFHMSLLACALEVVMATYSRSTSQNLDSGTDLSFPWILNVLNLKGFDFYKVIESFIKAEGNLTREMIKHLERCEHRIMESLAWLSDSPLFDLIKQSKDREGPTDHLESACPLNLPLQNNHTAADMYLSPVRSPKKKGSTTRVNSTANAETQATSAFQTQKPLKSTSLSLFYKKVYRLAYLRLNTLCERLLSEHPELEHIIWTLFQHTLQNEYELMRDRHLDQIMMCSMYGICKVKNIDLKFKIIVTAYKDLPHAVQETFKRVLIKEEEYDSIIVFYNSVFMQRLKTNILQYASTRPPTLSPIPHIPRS

Rb^P R656Q = molecular target: T4, Rb^P R656Q (human, UniProt P06400 380-788, R656Q)
T4 sequence: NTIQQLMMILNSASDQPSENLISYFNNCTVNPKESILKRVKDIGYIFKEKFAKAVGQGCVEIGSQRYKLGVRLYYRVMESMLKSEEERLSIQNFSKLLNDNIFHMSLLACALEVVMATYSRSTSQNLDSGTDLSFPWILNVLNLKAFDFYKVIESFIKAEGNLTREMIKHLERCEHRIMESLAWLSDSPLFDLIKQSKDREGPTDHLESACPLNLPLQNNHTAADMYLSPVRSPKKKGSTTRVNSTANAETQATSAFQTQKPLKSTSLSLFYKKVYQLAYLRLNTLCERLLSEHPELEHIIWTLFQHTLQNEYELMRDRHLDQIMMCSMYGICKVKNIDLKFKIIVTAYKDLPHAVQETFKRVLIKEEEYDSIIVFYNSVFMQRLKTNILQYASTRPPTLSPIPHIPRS

Rb^P H555Y = molecular target: T5, Rb^P H555Y (human, UniProt P06400 380-788, H555Y)
T5 sequence: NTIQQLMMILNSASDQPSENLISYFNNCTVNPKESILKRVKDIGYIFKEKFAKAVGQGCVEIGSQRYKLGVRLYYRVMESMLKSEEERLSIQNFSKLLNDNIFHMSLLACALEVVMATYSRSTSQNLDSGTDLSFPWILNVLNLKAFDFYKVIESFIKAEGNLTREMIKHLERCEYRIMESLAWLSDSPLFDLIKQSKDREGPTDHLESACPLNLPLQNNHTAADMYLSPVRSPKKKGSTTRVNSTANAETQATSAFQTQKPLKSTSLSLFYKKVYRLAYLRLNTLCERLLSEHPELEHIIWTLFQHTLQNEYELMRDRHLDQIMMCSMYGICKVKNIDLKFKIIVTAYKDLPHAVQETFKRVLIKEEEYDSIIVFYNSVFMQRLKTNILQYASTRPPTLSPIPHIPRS

Measured: binding result

DLYCYEQLN (not fully specified; TMR fluorescent label (TMR-E7^LxCxE)) [TMR-E7^LxCxE (LxCxE peptide of the E7 oncoprotein from HPV, TMR-labeled)]
binds: all assays above
